Measured values: patent US20230159612A1 (MEDIGENE IMMUNOTHERAPIES, published 2023)

B1: MAGE-A4 TCR-5 (fully human TCR) (TCR)
TCR alpha: AQKITQTQPGMFVQEKEAVTLDCTYDTSDPSYGLFWYKQPSSGEMIFLIYQGSYDQQNATEGRYSLNFQKARKSANLVISASQLGDSAMYFCAMSGGYTGGFKTIFGAGTRLFVKANIQNPDPAVYQLRDSKSSDKSVCLFTDFDSQTNVSQSKDSDVYITDKTVLDMRSMDFKSNSAVAWSNKSDFACANAFNNSIIPEDTFFPSPESSCDVKLVEKSFETDTNLNFQNLSVIGFRILLLKVAGFNLLMTLRLWSS
TCR beta: DSGVTQTPKHLITATGQRVTLRCSPRSGDLSVYWYQQSLDQGLQFLIQYYNGEERAKGNILERFSAQQFPDLHSELNLSSLELGDSALYFCASSGGDGDEQFFGPGTRLTVLEDLKNVFPPEVAVFEPSEAEISHTQKATLVCLATGFYPDHVELSWWVNGKEVHSGVSTDPQPLKEQPALNDSRYCLSSRLRVSATFWQNPRNHFRCQVQFYGLSENDEWTQDRAKPVTQIVSAEAWGRADCGFTSESYQQGVLSATILYEILLGKATLYAVLVSALVLMAMVKRKDSRG
notes: no leader limits stated
B2: MAGE-A4 TCR-4 (fully human TCR) (TCR)
TCR alpha: AQKITQTQPGMFVQEKEAVTLDCTYDTSDQSYGLFWYKQPSSGEMIFLIYQGSYDEQNATEGRYSLNFQKARKSANLVISASQLGDSAMYFCAMSGDSAGNMLTFGGGTRLMVKPHIQNPDPAVYQLRDSKSSDKSVCLFTDFDSQTNVSQSKDSDVYITDKTVLDMRSMDFKSNSAVAWSNKSDFACANAFNNSIIPEDTFFPSPESSCDVKLVEKSFETDTNLNFQNLSVIGFRILLLKVAGFNLLMTLRLWSS
TCR beta: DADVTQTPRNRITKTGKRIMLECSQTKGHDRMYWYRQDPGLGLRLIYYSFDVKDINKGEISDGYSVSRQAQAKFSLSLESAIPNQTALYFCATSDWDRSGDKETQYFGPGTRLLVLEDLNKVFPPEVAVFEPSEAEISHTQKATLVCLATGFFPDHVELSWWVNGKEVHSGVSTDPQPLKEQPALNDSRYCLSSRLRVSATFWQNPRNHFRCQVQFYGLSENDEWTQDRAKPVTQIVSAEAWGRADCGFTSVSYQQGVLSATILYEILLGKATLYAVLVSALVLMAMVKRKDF
notes: no leader limits stated
B3: MAGE-A4 TCR-6 (fully human TCR) (TCR)
TCR alpha: GENVEQHPSTLSVQEGDSAVIKCTYSDSASNYFPWYKQELGKRPQLIIDIRSNVGEKKDQRIAVTLNKTAKHFSLHITETQPEDSAVYFCAASRGTGFQKLVFGTGTRLLVSPNIQNPDPAVYQLRDSKSSDKSVCLFTDFDSQTNVSQSKDSDVYITDKTVLDMRSMDFKSNSAVAWSNKSDFACANAFNNSIIPEDTFFPSPESSCDVKLVEKSFETDTNLNFQNLSVIGFRILLLKVAGFNLLMTLRLWSS
TCR beta: DTAVSQTPKYLVTQMGNDKSIKCEQNLGHDTMYWYKQDSKKFLKIMFSYNNKELIINETVPNRFSPKSPDKAHLNLHINSLELGDSAVYFCASSQFWDGAGDEQYFGPGTRLTVTEDLNKVFPPEVAVFEPSEAEISHTQKATLVCLATGFFPDHVELSWWVNGKEVHSGVSTDPQPLKEQPALNDSRYCLSSRLRVSATFWQNPRNHFRCQVQFYGLSENDEWTQDRAKPVTQIVSAEAWGRADCGFTSVSYQQGVLSATILYEILLGKATLYAVLVSALVLMAMVKRKD
notes: no leader limits stated
B4: TCR-3 containing murinized Cα and Cβ regions (TCR)
TCR alpha: GENVEQHPSTLSVQEGDSAVIKCTYSDSASNYFPWYKQELGKRPQLIIDIRSNVGEKKDQRIAVTLNKTAKHFSLHITETQPEDSAVYFCAASRGTGFQKLVFGTGTRLLVSPNIQNPEPAVYQLKDPRSQDSTLCLFTDFDSQINVPKTMESGTFITDKTVLDMKAMDSKSNGAIAWSNQTSFTCQDIFKETNATYPSSDVPCDATLTEKSFETDMNLNFQNLSVMGLRILLLKVAGFNLLMTLRLWSS
TCR beta: DTAVSQTPKYLVTQMGNDKSIKCEQNLGHDTMYWYKQDSKKFLKIMFSYNNKELIINETVPNRFSPKSPDKAHLNLHINSLELGDSAVYFCASSQFWDGAGDEQYFGPGTRLTVTEDLRNVTPPKVTLFEPSKAEIANKQKATLVCLARGFFPDHVELSWWVNGKEVHSGVSTDPQAYKESNYSYCLSSRLRVSATFWHNPRNHFRCQVQFHGLSEEDKWPEGSPKPVTQNISAEAWGRADCGITSASYHQGVLSATILYEILLGKATLYAVLVSGLVLMAMVKKKNS
notes: Expressed on the surface of retrovirally transduced human CD8+ T cells; Human variable regions with murine constant regions; also called MAGE-A4-TCR
B5: TCR-1 containing murinized Cα and Cβ regions (TCR)
TCR alpha: AQKITQTQPGMFVQEKEAVTLDCTYDTSDQSYGLFWYKQPSSGEMIFLIYQGSYDEQNATEGRYSLNFQKARKSANLVISASQLGDSAMYFCAMSGDSAGNMLTFGGGTRLMVKPHIQNPEPAVYQLKDPRSQDSTLCLFTDFDSQINVPKTMESGTFITDKTVLDMKAMDSKSNGAIAWSNQTSFTCQDIFKETNATYPSSDVPCDATLTEKSFETDMNLNFQNLSVMGLRILLLKVAGFNLLMTLRLWSS
TCR beta: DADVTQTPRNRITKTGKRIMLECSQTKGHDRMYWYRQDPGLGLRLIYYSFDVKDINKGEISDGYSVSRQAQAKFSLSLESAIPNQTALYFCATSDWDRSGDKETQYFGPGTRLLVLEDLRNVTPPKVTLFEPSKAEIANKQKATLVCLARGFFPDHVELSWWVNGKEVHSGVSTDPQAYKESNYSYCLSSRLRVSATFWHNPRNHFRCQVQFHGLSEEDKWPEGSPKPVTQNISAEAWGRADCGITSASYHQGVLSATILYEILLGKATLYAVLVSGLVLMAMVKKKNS
notes: as for B4
B6: TCR-2 containing murinized Cα and Cβ regions (TCR)
TCR alpha: AQKITQTQPGMFVQEKEAVTLDCTYDTSDPSYGLFWYKQPSSGEMIFLIYQGSYDQQNATEGRYSLNFQKARKSANLVISASQLGDSAMYFCAMSGGYTGGFKTIFGAGTRLFVKANIQNPEPAVYQLKDPRSQDSTLCLFTDFDSQINVPKTMESGTFITDKTVLDMKAMDSKSNGAIAWSNQTSFTCQDIFKETNATYPSSDVPCDATLTEKSFETDMNLNFQNLSVMGLRILLLKVAGFNLLMTLRLWSS
TCR beta: DSGVTQTPKHLITATGQRVTLRCSPRSGDLSVYWYQQSLDQGLQFLIQYYNGEERAKGNILERFSAQQFPDLHSELNLSSLELGDSALYFCASSGGDGDEQFFGPGTRLTVLEDLRNVTPPKVTLFEPSKAEIANKQKATLVCLARGFFPDHVELSWWVNGKEVHSGVSTDPQAYKESNYSYCLSSRLRVSATFWHNPRNHFRCQVQFHGLSEEDKWPEGSPKPVTQNISAEAWGRADCGITSASYHQGVLSATILYEILLGKATLYAVLVSGLVLMAMVKKKNS
notes: as for B4

Key:
[1] = biological target: T1, MAGE-A4GVY-MHC-multimer (MAGE-A4 230-239, …; immuneAware) (human); assay: flow cytometry, multimer staining of TCR-transduced CD3+ T cells, gated on live CD3+ cells
T1 construct: Bought reagent (immuneAware); also called GVY-specific tetramer
Excerpt: After expansion of these cells, they were stained with a MAGE-A4GVY-MHC-multimer and antibody against CD3 and analyzed by flow cytometry. Populations were gated on live CD3+ cells and multimer staining.
After expansion, the transduced T cells were stained with a MAGE-A4GVY-MHC-multimer (MAGE-A4²³⁰⁻²³⁹, […]; immuneAware) and antibodies against CD3. Populations were gated on live CD3⁺ cells and multimer staining. All MAGE-A4-TCR-transgenic T cell populations bound the MAGE-A4GVY-MHC-multimer very efficiently (>70%).

[2] = biological target: T1, MAGE-A4GVY-MHC-multimer (MAGE-A4 …); assay: flow cytometry, multimer staining of TCR-transduced CD8+ T cells, gated on live CD8+/mCb+ cells
Excerpt: Transduced CD8+ T cells were enriched by FACS using the murine constant beta region as a marker for transduction. After expansion of these cells, they were stained with an MAGE-A4GVY-MHC-multimer and antibodies against CD8 and the murine constant beta region (mmCb) and analyzed by flow cytometry. Populations were gated on live CD8+/mCb+ cells and staining of multimer/CD8 is shown.
They were stained with a MAGE-A4GVY-MHC-multimer (MAGE-A4²³⁰⁻²³⁹, […]; immuneAware) and antibodies against CD8 and the murine constant beta region. All MAGE-A4-TCR-transgenic T cell populations bound the MAGE-A4GVY-MHC-multimer very efficiently (>70%).

| Binder | percent of cells stained by the multimer [1] [%] | percent of cells stained by the multimer [2] [%] |
| --- | --- | --- |
| B1 | > 70 | – |
| B2 | > 70 | – |
| B3 | > 70 | – |
| B4 | – | > 70 |
| B5 | – | > 70 |
| B6 | – | > 70 |
